Data: patent publication US20240058466A1 (TAE LIFE SCIENCES, published 2024)

B1: Anti-EGFR Mab No. 3, L234A, L235A, L328C (antibody, human IgG1, L234A L235A)
heavy: QVQLQQSGAEVKKPGSSVKVSCKASGYTFTNYYIYWVRQAPGQGLEWIGGINPTSGGSNFNEKFKTRVTITADESSTTAYMELSSLRSEDTAFYFCTRQGLWFDSDGRGFDFWGQGTTVTVSSASTKGPSVFPLAPSSKSTSGGTAALGCLVKDYFPEPVTVSWNSGALTSGVHTFPAVLQSSGLYSLSSVVTVPSSSLGTQTYICNVNHKPSNTKVDKRVEPKSCDKTHTCPPCPAPEAAGGPSVFLFPPKPKDTLMISRTPEVTCVVVDVSHEDPEVKFNWYVDGVEVHNAKTKPREEQYNSTYRVVSVLTVLHQDWLNGKEYKCKVSNKACPAPIEKTISKAKGQPREPQVYTLPPSREEMTKNQVSLTCLVKGFYPSDIAVEWESNGQPENNYKTTPPVLDSDGSFFLYSKLTVDKSRWQQGNVFSCSVMHEALHNHYTQKSLSLSPGK
light: DIQMTQSPSSLSASVGDRVTITCRSSQNIVHSNGNTYLDWYQQTPGKAPKLLIYKVSNRFSGVPSRFSGSGSGTDFTFTISSLQPEDIATYYCFQYSHVPWTFGQGTKLQITREVAAPSVFIFPPSDEQLKSGTASVVCLLNNFYPREAKVQWKVDNALQSGNSQESVTEQDSKDSTYSLSSTLTLSKADYEKHKVYACEVTHQGLSSPVTKSFNRGEC
notes: Fc variant; also called Anti-EGFR Ab No. 3 L234A, L235A, L328C; triple mutant
B2: Anti-EGFR Mab No. 3, L328C (antibody, human IgG1)
heavy: not shown
light: B1 light
notes: Fc variant; also called Anti-EGFR Ab No. 3 L328C; single mutant

Target: T1, recombinant human FcRn (Sino Biological) (human, UniProt P55899 24-297; P61769 21-119)
T1 construct: the two chains are those of natural FcRn
Test: ELISA at pH 6.0: plate coated with recombinant human FcRn, antibody titrated, goat anti-human Fc-HRP, OD650

T1 sequence (P55899 24-297 limits assumed, chain 1 of 2): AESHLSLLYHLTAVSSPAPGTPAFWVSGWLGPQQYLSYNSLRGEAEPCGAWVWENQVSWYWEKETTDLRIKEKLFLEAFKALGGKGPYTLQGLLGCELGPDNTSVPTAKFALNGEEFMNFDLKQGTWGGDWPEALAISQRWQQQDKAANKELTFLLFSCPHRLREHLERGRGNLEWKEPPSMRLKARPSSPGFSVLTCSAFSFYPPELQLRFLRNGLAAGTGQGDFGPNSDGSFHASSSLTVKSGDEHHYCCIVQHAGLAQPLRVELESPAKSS
T1 sequence (P61769 21-119 limits assumed, chain 2 of 2): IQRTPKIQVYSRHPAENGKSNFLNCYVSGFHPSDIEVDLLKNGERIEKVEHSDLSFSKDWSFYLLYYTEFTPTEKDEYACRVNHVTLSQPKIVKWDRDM

Binder	binding result
B1	binds
B2	binds
